Patent US12618828B2, “Probe and method for detecting membrane-associated molecules in living cells” (priority 2021, dated 2026)

B1: KB1753-mScarlet-GSGGSGG-hRas (protein)
chain: MSSRGYYHGIWVGEEGRLSRVSKGEAVIKEFMRFKVHMEGSMNGHEFEIEGEGEGRPYEGTQTAKLKVTKGGPLPFSWDILSPQFMYGSRAFTKHPADIPDYYKQSFPEGFKWERVMNFEDGGAVTVTQDTSLEDGTLIYKVKLRGTNFPPDGPVMQKKTMGWEASTERLYPEDGVLKGDIKMALRLKDGGRYLADFKTTYKAKKPVQMPGAYNVDRKLDITSHNEDYTVVEQYERSEGRHSTGGMDELYKGSGGSGGCMSCKCVLS
modifications: KB1753-mScarlet-GSGGSGG-hRas
notes: Protein probe: hRas fragment anchor, GSGGSGG linker, mScarlet, peptide KB1753
B2: KB1753-HALO-GSGGSGG-hRas (protein)
chain: MSSRGYYHGIWVGEEGRLSRAEIGTGFPFDPHYVEVLGERMHYVDVGPRDGTPVLFLHGNPTSSYVWRNIIPHVAPTHRCIAPDLIGMGKSDKPDLGYFFDDHVRFMDAFIEALGLEEVVLVIHDWGSALGFHWAKRNPERVKGIAFMEFIRPIPTWDEWPEFARETFQAFRTTDVGRKLIIDQNVFIEGTLPMGVVRPLTEVEMDHYREPFLNPVDREPLWRFPNELPIAGEPANIVALVEEYMDWLHQSPVPKLLFWGTPGVLIPPAEAARLAKSLPNCKAVDIGPGLNLLQEDNPDLIGSEIARWLSTLEISGGSGGSGGCMSCKCVLS
modifications: HALO labelled with JF-549; KB1753-HALO-GSGGSGG-hRas
notes: Protein probe: hRas fragment anchor, GSGGSGG linker, HALO fluorogenic protein (labelled with JF-549), peptide KB1753
B3: KB1753-SNAP-GSGGSGG-hRas (protein)
chain: MSSRGYYHGIWVGEEGRLSRDKDCEMKRTTLDSPLGKLELSGCEQGLHRIIFLGKGTSAADAVEVPAPAAVLGGPEPLMQATAWLNAYFHQPEAIEEFPVPALHHPVFQQESFTRQVLWKLLKVVKFGEVISYSHLAALAGNPAATAAVKTALSGNPVPILIPCHRVVQGDLDVGGYEGGLAVKEWLLAHEGHRLGKPGLGSGGSGGCMSCKCVLS
modifications: SNAP labelled with SNAP Cell 430; KB1753-SNAP-GSGGSGG-hRas
notes: Protein probe: hRas fragment anchor, GSGGSGG linker, SNAP fluorogenic protein (labelled with SNAP Cell 430), peptide KB1753
B4: GAP43-SSGSSGTG-HALO-GRK2ct (protein)
chain: MLCCMRRTKQVEKNDEDQNSSGSSGTGAEIGTGFPFDPHYVEVLGERMHYVDVGPRDGTPVLFLHGNPTSSYVWRNIIPHVAPTHRCIAPDLIGMGKSDKPDLGYFFDDHVRFMDAFIEALGLEEVVLVIHDWGSALGFHWAKRNPERVKGIAFMEFIRPIPTWDEWPEFARETFQAFRTTDVGRKLIIDQNVFIEGTLPMGVVRPLTEVEMDHYREPFLNPVDREPLWRFPNELPIAGEPANIVALVEEYMDWLHQSPVPKLLFWGTPGVLIPPAEAARLAKSLPNCKAVDIGPGLNLLQEDNPDLIGSEIARWLSTLEISGGSSRNFPLVISERWQQEVAETVYEAVNADTDKIEARKRAKNKQLGHEEDYALGRDCIVHGYMLKLGNPFLTQWQRRYFYLFPNRLEWRGEGESRQSLLTMEQIVSVEETQIKDKKCILLRIKGGKQFVLQCESDPEFVQWKKELTETFMEAQRLLRRAPKFLNKSRSAVVELSKPPLCHRNSNGLGSRG
modifications: HALO labelled with JF-549; GAP43-SSGSSGTG-HALO-GRK2ct
notes: Protein probe: GAP43 fragment anchor, SSGSSGTG linker, HALO (labelled with JF-549), GRK2 fragment with PH domain

Columns and labels:
Assay type in all cases: cell-based
[1] = molecular target: T1, activated form of the G-protein Gαi1 (Gαi1(Q204L)) (Homo sapiens, UniProt P63096, Q204L); assay: Polarization microscopy of probe in HEK293 cells, with or without cotransfected constitutively activated Gαi1(Q204L); settings: cotransfection of Gαi1(Q204L) plasmid, excitation polarization resolved single-photon laser scanning confocal microscopy
T1 construct: expressed in transfected cells; host or cells: HEK293
T1 sequence (P63096 whole entry Q204L): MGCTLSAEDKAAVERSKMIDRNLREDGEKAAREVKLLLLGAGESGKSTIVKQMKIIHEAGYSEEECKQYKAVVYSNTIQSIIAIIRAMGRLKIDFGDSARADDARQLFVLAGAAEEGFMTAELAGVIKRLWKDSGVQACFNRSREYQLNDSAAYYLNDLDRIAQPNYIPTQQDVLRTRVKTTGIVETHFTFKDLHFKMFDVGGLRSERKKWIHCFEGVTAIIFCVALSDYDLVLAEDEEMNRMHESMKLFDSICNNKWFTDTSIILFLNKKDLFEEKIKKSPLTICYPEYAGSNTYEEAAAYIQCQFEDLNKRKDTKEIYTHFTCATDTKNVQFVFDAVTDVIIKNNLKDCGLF
Description: A protein (SEQ ID NO:5) that includes as an anchoring moiety a fragment of the protein h-Ras, a flexible peptide linker (amino acid sequence GSGGSGG (SEQ ID NO:1)), a monomeric enhanced green fluorescent protein (meGFP) as a fluorescent moiety, and an affinity binding peptide KB1753 known to bind the activated form of the G-protein Gαi1 (Johnston C A & al., Structure. 2005 Jul. 1; 13(7):1069-80), was encoded into a DNA sequence (SEQ ID NO:6) and cloned into a mammalian expression vector (pcDNA3.1(+)) under the control of the cytomegalovirus (CMV) promoter. The resulting DNA encoding the probe of invention was transfected into HEK293 cells either alone, or along with DNA encoding the target protein of the probe.
Prior to microscopy observations, mammalian cells (HEK293) were cultured at 37° C. under an atmosphere of 95% air, 5% CO2, in Dulbecco's modified Eagle's medium with Glutamax I and high glucose (Life Technologies), supplemented with 10% fetal bovine serum. […]
The cells were observed by excitation polarization resolved single-photon laser scanning confocal microscopy, by excitation polarization resolved two-photon laser scanning microscopy, by excitation polarization resolved single-photon wide-field fluorescence microscopy, and by fluorescence polarization resolved single-photon laser scanning confocal microscopy.
(§1) In excitation polarization resolved single-photon laser scanning confocal microscopy, the cells (in the multi-well cover slip) were observed using a single-photon laser scanning confocal microscope Olympus FV1200, modified for excitation-polarization resolved microscopy. […] Fluorescence of wavelengths in the range of 510-610 nm was separated from the excitation light by a long-pass dichroic mirror (DM405/488, Olympus, Japan), diffractive grating, and an adjustable slit, and detected by a photomultiplier. […]
(§2) The resulting images were deconvolved and quantitatively analyzed by following published procedures (Bondar A & al., Communications Biology. 2021 Feb. 12; 4(1):1-2.) that rely on publicly available software tools. […]

activated form of Gαi1 = molecular target: T2, activated form of Gαi1 (Homo sapiens, UniProt P63096); assay: Polarization microscopy of probe in HEK293 cells, Gαi1 activated through the α2-adrenergic receptor by norepinephrine; settings: HEK293 cells cotransfected with Gαi1, Gβ1, Gγ2 and α2-adrenergic receptor; 10 μM norepinephrine; excitation polarization resolved single-photon confocal microscopy
T2 construct: expressed in transfected cells; host or cells: HEK293
T2 sequence (P63096 whole entry): as the sequence (P63096 whole entry Q204L) above, with L204Q counted along it
Procedure: (§3) Prior to microscopy observations, mammalian cells (HEK293) were cultured at 37° C. under an atmosphere of 95% air, 5% CO2, in Dulbecco's modified Eagle's medium with Glutamax I and high glucose (Life Technologies), supplemented with 10% fetal bovine serum. Cells were plated on 8-chamber microscopy slides (p-Slides, Ibidi GmbH, Germany). Transfections were carried out using 0.2 μg of plasmid DNA and Lipofectamine 2000 (Life Technologies), according to the protocol of the manufacturer. In cotransfections, 0.2 μg of each of the plasmids were used. Microscopy experiments were carried out 48 h after transfection. […]
as §1, §2

GβGγ dimer = molecular target: T3, GβGγ dimer (Homo sapiens, UniProt P59768+P62873); assay: Polarization microscopy of probe in HEK293 cells, with or without cotransfected GβGγ dimer; settings: cotransfection of plasmids encoding the, excitation polarization resolved single-photon confocal microscopy
T3 construct: expressed in transfected cells; host or cells: HEK293
T3 sequence (P62873 2-340 limits assumed): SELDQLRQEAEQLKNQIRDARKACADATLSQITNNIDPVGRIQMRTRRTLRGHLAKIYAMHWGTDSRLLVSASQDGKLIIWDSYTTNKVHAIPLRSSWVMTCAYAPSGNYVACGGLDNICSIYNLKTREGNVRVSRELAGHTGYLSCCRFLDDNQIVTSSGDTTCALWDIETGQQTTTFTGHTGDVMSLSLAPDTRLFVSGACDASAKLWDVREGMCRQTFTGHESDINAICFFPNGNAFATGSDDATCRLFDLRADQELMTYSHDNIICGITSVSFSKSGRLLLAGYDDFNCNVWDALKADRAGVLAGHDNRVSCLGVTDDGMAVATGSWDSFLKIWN
T3 sequence (P59768 2-68 limits assumed): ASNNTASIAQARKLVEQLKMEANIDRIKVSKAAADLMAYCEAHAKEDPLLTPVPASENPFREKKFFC
Procedure: as §3, §1, §2

| Molecule | linear dichroism of the fluorescent moiety of the probe in presence of its target molecule compared with absence [1] | linear dichroism of the fluorescent moiety of the probe in presence of activated Gαi1 compared with absence (activated form of Gαi1) | linear dichroism of the fluorescent moiety of the probe in presence of its target molecule compared with absence (GβGγ dimer) |
| --- | --- | --- | --- |
| B1 | statistically significantly higher | statistically significantly higher | – |
| B2 | statistically significantly lower | statistically significantly lower | – |
| B3 | statistically significantly higher | – | – |
| B4 | – | – | statistically significantly higher |
